Substrate: NC(=O)c1ccc[n+]([C@@H]2O[C@H](COP(=O)(O)OP(=O)(O)OC[C@H]3O[C@@H](n4cnc5c(N)ncnc54)[C@H](OP(=O)(O)O)[C@@H]3O)[C@@H](O)[C@H]2O)c1
Assay: purified protein
Type: biochemical, Escherichia coli
Conditions: co-substrate 6-phosphogluconate, general assay: Tris-HCl pH 7.5, 1 mM MgCl2, 30 °C

B1: Gnd (GE), 6-phosphogluconate dehydrogenase (Escherichia coli K-12) (protein)
chain: MSKQQIGVVGMAVMGRNLALNIESRGYTVSIFNRSREKTEEVIAENPGKKLVPYYTVKEFVESLETPRRILLMVKAGAGTDAAIDSLKPYLDKGDIIIDGGNTFFQDTIRRNRELSAEGFNFIGTGVSGGEEGALKGPSIMPGGQKEAYELVAPILTKIAAVAEDGEPCVTYIGADGAGHYVKMVHNGIEYGDMQLIAEAYSLLKGGLNLTNEELAQTFTEWNNGELSSYLIDITKDIFTKKDEDGNYLVDVILDEAANKGTGKWTSQSALDLGEPLSLITESVFARYISSLKDQRVAASKVLSGPQAQPAGDKAEFIEKVRRALYLGKIVSYAQGFSQLRAASEEYNWDLNYGEIAKIFRAGCIIRAQFLQKITDAYAENPQIANLLLAPYFKQIADDYQQALRDVVAYAVQNGIPVPTFSAAVAYYDSYRAAVLPANLIQAQRDYFGAHTYKRIDKEGVFHTEWLD
notes: full-length, C-terminal His-tag, Ni-NTA purified from E. coli, 51 kDa on SDS-PAGE
Km: 40 µM

Source: PMC5372246, “Co-production of hydrogen and ethanol from glucose in Escherichia coli by activation of pentose-phosphate pathway through deletion of phosphoglucose isomerase (pgi) and overexpression of glucose-6-phosphate dehydrogenase (zwf) and 6-phosphogluconate dehydrogenase (gnd)” (Biotechnology for Biofuels, 2017)
